Measurements: patent US20210130485A1

Target: FcγRs
Experiment: cell-based or functional assay

Substance: cis-LALA modified Fc polypeptide dimer fused to an anti-BACE1 Fab (bispecific antibody)
- pSyk levels in primary human microglial cells on polypeptide-coated plates (pSyk sandwich immunoassay): 3 fold
